Assay results: publication PMC9181621

Target: human α2-macroglobulin tetramer, (hα2M)4 (human) (UniProt P01023)
Test: cryo-EM structure
Conditions: scale: trypsin molecule per disulfide-linked hα2M dimer

Sequence of UniProt P01023 (P01023 24-1474): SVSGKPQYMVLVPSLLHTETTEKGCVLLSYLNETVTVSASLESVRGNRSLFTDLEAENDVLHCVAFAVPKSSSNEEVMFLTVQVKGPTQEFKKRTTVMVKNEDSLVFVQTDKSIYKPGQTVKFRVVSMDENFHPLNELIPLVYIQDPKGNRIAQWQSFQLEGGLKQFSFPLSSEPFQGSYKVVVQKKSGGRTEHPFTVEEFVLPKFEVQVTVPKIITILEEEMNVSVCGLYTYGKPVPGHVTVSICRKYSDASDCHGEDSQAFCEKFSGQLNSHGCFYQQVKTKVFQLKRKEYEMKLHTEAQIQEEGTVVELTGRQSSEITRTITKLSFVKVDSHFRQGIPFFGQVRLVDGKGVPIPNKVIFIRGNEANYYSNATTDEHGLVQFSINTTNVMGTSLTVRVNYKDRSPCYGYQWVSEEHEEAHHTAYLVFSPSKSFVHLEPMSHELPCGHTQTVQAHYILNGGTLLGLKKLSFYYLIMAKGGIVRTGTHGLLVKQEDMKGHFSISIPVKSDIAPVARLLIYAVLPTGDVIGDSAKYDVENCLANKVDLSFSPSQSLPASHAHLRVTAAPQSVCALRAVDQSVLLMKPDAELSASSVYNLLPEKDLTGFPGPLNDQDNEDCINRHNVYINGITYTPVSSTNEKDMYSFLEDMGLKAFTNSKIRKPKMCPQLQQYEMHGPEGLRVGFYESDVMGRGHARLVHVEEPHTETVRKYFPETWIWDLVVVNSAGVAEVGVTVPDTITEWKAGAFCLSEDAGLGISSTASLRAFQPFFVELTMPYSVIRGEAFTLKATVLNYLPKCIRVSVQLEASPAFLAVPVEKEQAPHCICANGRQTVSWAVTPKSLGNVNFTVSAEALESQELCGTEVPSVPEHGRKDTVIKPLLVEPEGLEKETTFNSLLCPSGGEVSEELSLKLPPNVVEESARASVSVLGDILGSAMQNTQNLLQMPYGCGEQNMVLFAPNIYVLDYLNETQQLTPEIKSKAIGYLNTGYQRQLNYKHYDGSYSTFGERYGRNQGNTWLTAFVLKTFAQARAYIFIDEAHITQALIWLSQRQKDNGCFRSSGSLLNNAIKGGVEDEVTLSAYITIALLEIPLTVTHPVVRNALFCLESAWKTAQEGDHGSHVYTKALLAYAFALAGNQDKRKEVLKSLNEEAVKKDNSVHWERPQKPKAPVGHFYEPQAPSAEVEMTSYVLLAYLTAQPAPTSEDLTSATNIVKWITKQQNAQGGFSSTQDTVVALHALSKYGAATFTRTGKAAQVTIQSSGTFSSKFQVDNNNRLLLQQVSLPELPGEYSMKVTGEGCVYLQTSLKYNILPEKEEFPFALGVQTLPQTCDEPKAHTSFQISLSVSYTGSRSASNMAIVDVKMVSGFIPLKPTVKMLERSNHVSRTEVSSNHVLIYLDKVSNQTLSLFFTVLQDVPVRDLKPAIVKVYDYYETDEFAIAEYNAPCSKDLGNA

- stoichiometry N: 1
Substance: bovine trypsin (enzyme)
